According to the nanobody polyreactivity screen of Harvey et al. (2022):

Experiment: yeast display, Sf9 membrane polyspecificity reagent, FACS + sequencing; frameworks hold sequencing errors
How it was run: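 Using colony PCR, genes from sorted yeast display clones were amplified, then sequenced on MiSeq at 2 × 250 and filtered by CDR length. The clones had been stained with 10% biotinylated, detergent-solubilized Sf9 membrane reagent for 1 hour at 4 °C and sorted by FACS into low and high (top ~1%) gates on anti-HA and streptavidin fluorescence. Polyreactivity labels come from the gate of origin.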

Row | Sequence | polyreactivity (PSR sort gate)
1 | QVQLVESGGGLVQAGGSLRLSCAASGSTFQPYAMGWYRQAPGKEREFVATISGSAGSTYYADSVKGRFKISRDNAKNTVYLQMNSLKPEDTAVYYCNARPARKSLDYDYWGQGTQVTVSS | low polyreactivity
2 | QVQLVDSGGGLVQAGGSLRLSCAASGRTIGGNAMGWSRQAPGKERELVAGINISGGSTNYADSVKGRFTISRDNAKNTVYLQMNSLKPEDTAVYYCNADTAVYAWDDDYWGQGTQVTVSS | low polyreactivity
3 | QVQLVESGGGLVQAGGSLRLSCAASGRIFRGYAMGWYRQAPGKEREFVDAITKNGGSTYYADSVKGRFTISRDNAKNTVYLQMNSLKPEDTAVYYCAVRAWDPYTGKSEYWGQGTQVTVSS | low polyreactivity
4 | QVQLVESGGGLVQAGGSLRLSCAASGTTFRFYAMGLYRQAPGKERELDAAINGSGGSTYYADSVKGRFTISRDNAKNTVYFQMISMKPEDTAVYYCAADGVPDALDRDYWGQGTQVNVSS | low polyreactivity
5 | QVQLVESGGGLDQAGGSLRLSCAASGRTFIGYAMGWYRQAPGKVRELVAAFNWSGARTYYADSVKGRFTISRDNAKNTVYLQMNSLKPEDTAVYYCAAVPVTSQTKYGYWGQGTQVTVSS | high polyreactivity
6 | QVQLVESGGGLVQAGGSLRLTCAASGFIFTYNAMGWYRQAPGKERELVAAISWSGSRTNYADTVKGRFTISRDNAKHTVYLQMNSLKPEDTAVFYCAAKYKYRTYNYWGQGTQVTVSS | high polyreactivity
7 | QVQLVESGGGLVQAGGSLRLSCAASGGTFVRNTMGWSRQAPGKERELVAGITKNGGSTYYADSVKGRFTISRDNAKNTVYLQMNSLKPEVTAVYYCAIYVSWPLYYYWGQGTQVTVSS | low polyreactivity
8 | QVQLVESGGGLVQAGGSLRLSCAASGSIFNGYAMGWYRQAPGKERELVAAISWSGVGTYYADSVKGRFTISRDNAKNTVYLQMNSLKPEDTAVYYCAAALPLVDFYDYWGQGTQVTVSS | low polyreactivity
9 | QDQLVESGGGLVQAGGSLRLSCAATGFTFYSYAMGWYRQAPGKERELVAGISRSGGSTYYADSVKGRFTISRDNGKNTVYLQMKSLKPVDTAVYYCNVGLRKKIQNSKYDYWGQGTQVTVSS | high polyreactivity
10 | QVQLVESGGGLVQAGGSLRLSCAASRSTITYNAMGWYRQAPGKERELVAAISFSGGRTYYADSVKGRFTISRDNAKNIVYLHMNRLKPEDTAVYYCAKRYGASFYYWGQGTQVTVSS | high polyreactivity
11 | QVQLVESGGGLDQAGGSLRLSCAASGSTFSYNAKGWYRQAPGKERELVAAITYRGSSTYYADSVKGRFTSSRDNAKNTVDLQMNSLKPEDTAVYYCAVSYVRYRGSGLTAFNYWGQGTQVTVSS | high polyreactivity
12 | HLQLVESGGVLVQAGGSLRLSCASSGSTFRSNVMGWYRQAPGKAREFVAAITSSSATTYYADSVKGRFTISRDNAKNTVYLLINSLKPEDTAVYYCAAGGRKAGPAGGQYYYWGQGTQVTVSS | low polyreactivity
13 | QVHLVESGGGLVHAGGSLRLSCAASGSTFDYYAMGWYRQEHGKERELVAAISSGGSTYYADSVKGSFTISRDNPKNTVYLQMNSRKPEDTAVYYCAAVYRGQFSRYDYWGQGTQVTVSS | low polyreactivity
14 | QVQLVESGGGLVQAGGSLRLSCAASGRTFYRYAMGWYRQAPGKERELVATITLRGGRTYYADSVKGRFTISRDTAKNTVYLQMNSLKPEDTAVYYCAKYHWRLSFSRYPYDYWGQGTQVTVSS | high polyreactivity
15 | QVQLVESGGGLVQAGGSLRLSCAASGIILSDYAMGWYRPAPGKERELVAAITSGGGSTYYADSVKGRFTISRDNAKNTVYLQMNSLNPEDTAVYFCAADLTSYYGGDYWGQGTQVTVSS | low polyreactivity
16 | QVQLVESGGRLDQAGGSLRLSCAASASTFKEYPMGWYRQAPGKERELVAAISKSGDSTYYADSVKGRFTISRDNAKNTVYLQMNSLKPEDTAVYYCAADTFSFRWSDYWGLGTQVTVSS | low polyreactivity
17 | QVQLVESGGGLVQEGGSLRLSCAASGSTSQYNDMGWYRQAPGKERELVAAITNCGSTNYADSVKGRFTISRDNAKNTVYLQMNSLKPEDTAVYSCNADYGQERPGYGYGYWGQGTQVTVSS | low polyreactivity
18 | QVQLVESGGGLVQAGGSLRLSCAASGRTFVYYAMGWYRPAPGKERELVAAISSRGGSTYYADSVKGRFTISRDNAKNTVYLQMNSLKPEDTAVYYCAAVKGPERPTSPYDYWGQGTQVTVSS | high polyreactivity
19 | QVQLVESGGGLVQAGGSLRLICAASGSTFQDNAMGWYRQAPGKERELVASISSVDSTNYADSVKGRFTISRDNAQNTVYLQMNSLKPEDTAVYYCNAAHPYRRVGSFTYKYDYWGQGTQVTVSS | low polyreactivity
20 | QVQLVESGGGLVQAGGSLRLSCAASGSIFVTYAMGWYRQAPGKERELVAAITWNGGSTYYADSVKGRFTISRDNAKNTVYLQMNSLKPEDTAVYYCAADSRYRGNYWGQGTQVTVSS | high polyreactivity
21 | QVQLVESGGGLVQAGGSLRLSCAASGITFFPYAMGWYIQAPGKERELVADITWRGGRTYYADSVKGRFTISRDNAKNTVYLQMNSLKPEDTAVYYCAKVARQNWFRYNYDYWGQGTQVTVSS | high polyreactivity
22 | QVQLVESGGGLVQAGGSLRLSSGASGSTFVTYAMGWYRQAPGKEREFVAAISSTGTGRTYYADSVKGRFTISRDNAKNPVYLQMNSLKPEDTAVYYCAADLYGTYDYWGQGTQVTVSS | low polyreactivity

Row | Sequence | polyreactivity (PSR sort gate)
23 | QVQLVESGGGLVQAGGSLRLSCSASGLIFPSNTMGWYRQAPGTERELVAAITFSGDSTNYADSVKGRFTISRDNAKNTVYVQMNSLKPEDTAVYYCAASQVSDTTRFGYWGQGTQVTVSS | low polyreactivity
24 | QVHLVESGAGLDQAGGSLSLSCAASGRNFSFNAMGSYRQAPGKVRELVASIRSGGSTNYADSVKGRFTISSDNAKNTVYLQMNSLKPEDTAVYYCAKRSTYWGWSSYGMDHWGQGTQVTVSS | high polyreactivity
25 | QDQLVESGGGLVQAGGSLRLSCAATGSTYYGYVMGWYRKAPGKETELVAAINLRGDRTYYADSVKGRFTISRDNAKNTVYLQMNSLKPEESSVYYCAARVMFYNSIKRYSWGQGTQVTGSS | high polyreactivity
26 | QVQLVESGGGLVQAGGSLRLSCAASGSNFAVYAMGWYRQAPGKERELVATIRWNGGSTYYADSVKGRFTISRDNAKNTVYLQMNSLKQEDTAVYYCAKEYSTYVSKKSAYRYYYWGQGTQVTVSS | high polyreactivity
27 | QVQLVESGGGLVQAGGSLRISCAASAITFEPYAMGWYRQAPGTEREFVAAISRSGGSTYYADSVKGRFTISRDNAKNTVYLQMNSLKPEDTAVYYCAADSWIGPDYGHDYRGQGTQVTVSS | high polyreactivity
28 | QDQLVESGGGLVQAGGSLRLSCAASGFTCRYYAMGWYRQAPGKERELVAAITGSGTRTYYADSVKGRFTISRDNAKNTVYLQMNSLKPEETAVYYCYPPRQPRWFDYWGQGTQVTVSS | high polyreactivity
29 | QVQLVESGGGLVQAGGSLRLSCAASGSIFGWYAMGGYRQAPGKESELVASISVTAGSTYYADSVKWRFTMSRDYAKNTVYLQMNSLKPEDTAVYYCAADDYTADAVQRFYYWGQGTQVTVSS | low polyreactivity
30 | QVQLVESRRGLVQAGASLRLSCAASGSTFYGYGMGWYRQAPGKERELVAAITGSGDTTYYADSVKGRFTISRDNAKNTVYLQMNSLKPEDTAVYYCNARWHAEYDYWGQGTQVTVSS | low polyreactivity
31 | QVQLVESGGGLVQAGGSLRLSCAASGSIFRANAMGGYRQAPGKERELVATISSGGSTNYADSVKGRFTISRDNAKNTVYLQMNSLKPEDTAVYYCAVKWYPPGHDYWGQGTQVTVSS | low polyreactivity
32 | QVQVVESGGGLVQAGGSLLLICAASGRTFWPNAMGWYRAAPGKERELVAAINWGGGSTYYADSVKVRFTISRDNAKNAVYLQKNSLKPEDTAVYYCAKSLVPWWYKVEYDYWGQGTQVTVSS | low polyreactivity
33 | QVQLLESGGGLDQAGGSLRLSCAAYGRIFGPNAMGWYRQAPGKERELVAAISWSGGTTRYADSVKGRFTISRDNAKNSVYLQMNSQKPEDTAVYYCAASADDRRSGKRYDSWGHGTQVTVSS | high polyreactivity
34 | QVQIVESGGGLVQAGGSLRLSCAASGSTFGGNAMGWYRQAPGKERDLVAVISKRGGSKYYADSVKGRFTISRDNAKNTVYLQMNSLKPEDTAVYYCAATYSRYWSPTYDYWGQGTQVNVSS | high polyreactivity
35 | QVQLVESGGGLVQAGGSLRLSCAASGIIFDHNAMGWYRQAPGKERELVAAISTGGGNTYYADSVKGRFTISRDNAKNTVYLQMNSLKPEDTAVYYCATEPGYSYLTSYKYVYWGQGTQVTVSS | low polyreactivity
36 | QVHLQESGGVQAGGSLPQSCAASGNISRSDVMGWYRQAPPKERELVATINNGTITYYADSVKGRFTISRDHAKNTVYLHMNSLKQEDTAVQYCAVVQSDTDSLYYWGQGTQVTVSS | low polyreactivity
37 | QVQLVESGGGLVQAGGSLRLSCAASGFTFYHNAMGWYRQAPGKERELVATITARGGRTYYADSVKGRFTISRDNAKNTVYLQMNSLKPVDTAVYYCNVKASRGYTYEYDYWGQGTQVTVSS | high polyreactivity
38 | QVQLVESGGGLVQAGGSLRLSCAASGRILFYYGMGWYRQAPGKERELVAAISKRGGSTYYADSVKGRFTISRDNAKNTVYLQMNSLKPEDTAVYYCAAVQPAWGNGYWGQGTQVTVSS | high polyreactivity
39 | QVHLVVSGGGLVQAGGSLRLMCAASGSTFKYYVMGWYRQAPGKERELVAAISGSGGSKYYADSVKGRFTISRDNAKNTVYLQMNSLIPEDTAVYYCAAGRLRGPGYYFTFDYWGQGTQVTVSS | high polyreactivity
40 | QVQLVESGGGLVQAGGSLRLSCAASGYTFRAYVMGWYRQAPGKERELVAGITRRGGTTYYADSVKGRFTISRDNAKNTVYLQMNSLKTEDTAVYYCNAVYRSGSIPYDSWGQGTQVTVSS | high polyreactivity
41 | QVQLVESGGGLEQAGGSLRLSCAASGRTFQYYTMGLYRQAPGKERELVAAISTGGSTHYSDSVKGRFTISRDNAKNTVYLEMFSLKPVDTAVYYCAALWSRRRSRPRFPGDFWGQGTQLTVSS | high polyreactivity
42 | QVQLVESGGGLVQAGGSLRLSCAASGSTFQYYAMGWYRQAPGKERELVAAISSGGSTYYADSVKGRFTISRDIAKNTVYLQMNSLKPEDTAVYYCAAYEYDGDYGYCGQGTQVTVSS | high polyreactivity
43 | QGQLVESWGGLVQAGGSLRLSCAASGSTLRRYAMGWYRQAPGKERELVAAISRRGGSTYYADSVKGRFSISRDFAKNTVYLEMNSLKPEDTAVYYCAAKGFSTRQFDYWGQGTQVTVSS | high polyreactivity
